Results on six molecules are retold here after US6521748B2, “Polynucleotide encoding a mutant Rhodotorula glutinis tyrosine ammonia lyase polypeptide” (E. I. du Pont de Nemours and Company, priority 1999, dated 2003).

Changes are numbered by the printed parent chain. Read-outs that look alike come from different tables or passages of the source.

For data set [1], the system named is tyrosine-auxotrophic E. coli strain AT2471 containing pCA18Km. Description: Toxicity of PHCA to tyrosine-auxotrophic E. coli on minimal plate. The note with it: for cell growth: 0.004 mM tyrosine added. The data set is classed as cell-based. The arrangement: key to cell growth: −: no growth; +: very poor growth; ++: poor growth; +++: good growth. The protocol:
(§1) In order to find the suitable condition for selection, cell growth was tested on a minimal plate containing various concentrations of tyrosine or PHCA (see Table 9).

For data set [2] the test system is unchanged. Description: Growth of tyrosine-auxotrophic E. coli on minimal plate with tyrosine. Set-up: key: −: no growth; +: very poor growth; ++: poor growth; +++: good growth. The note with it: no PHCA. The data set is classed as cell-based. The protocol:
as §1

The nature of data set [3]: Enzyme kinetics of purified wild type and mutant PAL, PAL activity (spectrophotometric). The data set is classed as biochemical. To be noted: phenylalanine as substrate; for Km: Lineweaver-Burke plot; for kcat: from Vmax assuming four active sites. The protocol: (§2) The PAL or TAL activity of the purified enzymes were measured using a spectrophotometer according to Abell et al., “Phenylalanine Ammonia-lyase from Yeast Rhodotorula glutinis,” Methods Enzymol. 142:242-248 (1987). The spectrophotometric assay for PAL determination was initiated by the addition of the enzyme to a solution containing 1.0 mM L-phenylalanine and 50 mM Tris-HCl (pH 8.5). The reaction was then followed by monitoring the absorbance of the product, cinnamic acid, at 290 nm using a molar extinction coefficient of 9000 cm^−1. The assay was run over a 5 min period using an amount of enzyme that produced absorbance changes in the range of 0.0075 to 0.018/min. One unit of activity indicated deamination of 1.0 μmol of phenylalanine to cinnamic acid per minute. The TAL activity was similarly measured using tyrosine in the reaction solution. The absorbance of the para-hydroxycinnamic acid produced was followed at 315 nm and the activity was determined using an extinction coefficient of 10,000 cm^−1 for PHCA. One unit of activity indicated deamination of 1.0 μmol of tyrosine to para-hydroxycinnamic acid per minute.
(§3) A detailed enzyme kinetics analysis using the yeast wild type and the purified mutant PAL enzyme and tyrosine or phenylalanine as substrate, was carried out. The PAL and TAL activities were measured spectrophotometrically as described in the General Methods and the KM and Vmax were determined from its Lineweaver-Burke plot. The kcat was calculated from Vmax assuming the presence of four active sites in the active tetramer.

Data set [4] is described as follows: Whole cell TAL/PAL activity ratio (follow-up assay after high throughput screen). It counts as cell-based, E. coli. As to the method: The following assay was performed to confirm that fully active mutant PAL enzyme was produced in BL21(DE3) E. coli cells. E. coli cells were grown in LB medium overnight. One mL of cell culture was pelleted and resuspended in 1 mL of 50 mM Tris-HCl buffer (pH 8.5) containing 0.5 mM tyrosine (for TAL activity measurement) or phenylalanine (for PAL activity measurement). The reaction mixture was incubated on the shaker at 37 C. for 1 hr. The reaction mixture was filtrated using 0.2 μm pore size filter (Millipore, Bedford, Mass.), and injected into HPLC (Hewlett-Packard Company, Palo Alto, Calif.). TAL or PAL activity was determined by measuring the concentration of the resulting PHCA or cinnamate. […]
5,000 mutant colonies were picked from agarose plates and screened by high throughput assay (Example 20). The initial hits were further investigated by a follow-up assay to confirm screening results. The TAL and PAL activities were measured using the whole cell assay, described in Example 17, and then ratio of TAL/PAL activities was calculated. The following table summarizes results of the follow-up assay for four mutants with altered TAL/PAL ratios:
A total of 5,000 mutant colonies from these three libraries were screened by high throughput assay (Example 20). Initial hits were further investigated by a follow-up HPLC assay to confirm the screening results as described in Example 21. One mutant with improved TAL/PAL ratio was found (Table 19).

Data set [5] can be described thus: TAL specific activity in cell free extracts. The data set is classed as biochemical. To be noted: cell free extract of E. coli clones over-expressing PAL from pKK223-3. As to the method: as §2
(§4) The cell pellet was resuspended with 0.5 mL/g cells, 50 mM Tris-HCl buffer (pH 8.5) and disrupted by a single passage through the French Pressure Cell at 20,000 psi. The disrupted cells were then centrifuged for 30 min at 14,200×g to remove the unbroken cell mass. […]

Data set [6] in a line: Enzyme kinetics of purified wild type and mutant PAL, TAL activity (spectrophotometric). The data set is classed as biochemical. To be noted: tyrosine as substrate; for Km: Lineweaver-Burke plot; for kcat: from Vmax assuming four active sites. As to the method:
as §2, §3

Data set [7] can be described thus: PAL specific activity in cell free extracts. To be noted: cell free extract of E. coli clones over-expressing PAL from pKK223-3. It counts as biochemical. The protocol:
as §2, §4

Data set [8] can be described thus: Ratio of TAL to PAL catalytic efficiency of purified enzymes. It counts as biochemical. As to the method: as §3
The catalytic efficiency, defined as kcat/KM, was calculated for both the wild type and mutant enzyme. The ratio of the TAL catalytic efficiency versus the PAL of the wild type enzyme was 0.5 while that of the mutant enzymes had increased to 1.7 (see Table 11).

A short description of data set [9]: Ratio of PAL to TAL specific activity. It counts as biochemical. To be noted: purified enzyme.
Method: The PAL or TAL activity of the purified enzymes were measured using a spectrophotometer according to Abell et al., “Phenylalanine Ammonia-lyase from Yeast Rhodotorula glutinis,” Methods Enzymol. […] The spectrophotometric assay for PAL determination was initiated by the addition of the enzyme to a solution containing 1.0 mM L-phenylalanine and 50 mM Tris-HCl (pH 8.5). The reaction was then followed by monitoring the absorbance of the product, cinnamic acid, at 290 nm using a molar extinction coefficient of 9000 cm^−1. The assay was run over a 5 min period using an amount of enzyme that produced absorbance changes in the range of 0.0075 to 0.018/min. One unit of activity indicated deamination of 1.0 μmol of phenylalanine to cinnamic acid per minute. The TAL activity was similarly measured using tyrosine in the reaction solution. The absorbance of the para-hydroxycinnamic acid produced was followed at 315 nm and the activity was determined using an extinction coefficient of 10,000 cm^−1 for PHCA. One unit of activity indicated deamination of 1.0 μmol of tyrosine to para-hydroxycinnamic acid per minute.
The PAL/TAL activity was determined as described above.
The nature of data set [10]: Whole cell PAL/TAL activity of colonies from the selection plates. The data set is classed as cell-based, E. coli. To be noted: whole cell assay. As to the method: An HPLC assay was developed for measuring the levels of cinnamic acid and PHCA formed by the whole cells. In a typical assay, following centrifugation of a culture grown in the medium of choice, 20-1000 μL of the supernatant was acidified with phosphoric acid, filtered through a 0.2 or 0.45 micron filter and analyzed by the HPLC to determine the concentration of PHCA and cinnamic acid in the growth medium. Alternatively, following centrifugation, the cells were resuspended in 100 mM Tris-HCl (pH 8.5) containing 1.0 mM tyrosine or 1.0 mM phenylalanine and incubated at room temperature for 1.0-16 h. A filtered aliquot (20-1000 μL) of this suspension was then analyzed.
The colonies that had appeared on the selection plates were analyzed for their PAL/TAL activity using the whole cell assay described in the general methods. […] Genetic analysis for the EP18Km-6 mutant was carried out. The plasmid DNA was purified from the mutant cells, and then re-transformed into E. coli. […] To better characterize the mutants, the following analyses were carried out.

The nature of data set [11]: Whole cell TAL activity assay (HPLC) in BL21(DE3) E. coli cells. The data set is classed as cell-based. The note with it: for TAL Activity (%): 0.5 mM tyrosine, 37 C, 1 hr. The protocol: The following assay was performed to confirm that fully active mutant PAL enzyme was produced in BL21(DE3) E. coli cells. E. coli cells were grown in LB medium overnight. One mL of cell culture was pelleted and resuspended in 1 mL of 50 mM Tris-HCl buffer (pH 8.5) containing 0.5 mM tyrosine (for TAL activity measurement) or phenylalanine (for PAL activity measurement). The reaction mixture was incubated on the shaker at 37 C. for 1 hr. The reaction mixture was filtrated using 0.2 μm pore size filter (Millipore, Bedford, Mass.), and injected into HPLC (Hewlett-Packard Company, Palo Alto, Calif.). TAL or PAL activity was determined by measuring the concentration of the resulting PHCA or cinnamate.
The truncation mutants were analyzed by measuring TAL activity using the whole cell assay described in Example 17. Table 15 summarizes the results:
The C-terminal truncation mutant was analyzed by measuring TAL and PAL activities using the whole cell assay described in Example 17, and pET17b-Km-6 was used as positive control.

The conditions of data set [12]: Hanson and Havir 1981; cited from earlier work.

Consider `O=C(O)C=Cc1ccc(O)cc1` [PHCA, Para-hydroxycinnamic acid], for which the cell growth entry is “+++” in [1] (0.0001-0.0002 mM PHCA); “+++” in data set [1] (0.0003-0.0005 mM PHCA); “+++” in data set [1] (0.001-0.004 mM PHCA); “−” in data set [1] (10 mM PHCA); “++” in data set [1] (1.0-2.0 mM PHCA); “+” in data set [1] (4.0-6.0 mM PHCA). The “toxicity to the cells” value in [1] (high concentrations) is recorded as “toxic”.

`N[C@@H](Cc1ccc(O)cc1)C(=O)O` [Tyrosine, tyrosine]: the cell growth entry in [2] (0.0001-0.0002 mM tyrosine) was “−”; in data set [2] (0.0003-0.0005 mM tyrosine), “+”; in [2] (0.001-0.004 mM tyrosine) it was “+++”.

B1: Wild Type PAL: wildtype R. glutinis (Rhodosporidium toruloides) PAL enzyme, SEQ ID NO:8 (protein)
chain: MAPSLDSISHSFANGVASAKQAVNGASTNLAVAGSHLPTTQVTQVDIVEKMLAAPTDSTLELDGYSLNLGDVVSAARKGRPVRVKDSDEIRSKIDKSVEFLRSQLSMSVYGVTTGFGGSADTRTEDAISLQKALLEHQLCGVLPSSFDSFRLGRGLENSLPLEVVRGAMTIRVNSLTRGHSAVRLVVLEALTNFLNHGITPIVPLRGTISASGDLSPLSYIAAAISGHPDSKVHVVHEGKEKILYAREAMALFNLEPVVLGPKEGLGLVNGTAVSASMATLALHDAHMLSLLSQSLTAMTVEAMVGHAGSFHPFLHDVTRPHPTQIEVAGNIRKLLEGSRFAVHHEEEVKVKDDEGILRQDRYPLRTSPQWLGPLVSDLIHAHAVLTIEAGQSTTDNPLIDVENKTSHHGGNFQAAAVANTMEKTRLGLAQIGKLNFTQLTEMLNAGMNRGLPSCLAAEDPSLSYHCKGLDIAAAAYTSELGHLANPVTTHVQPAEMANQAVNSLALISARRTTESNDVLSLLLATHLYCVLQAIDLRAIEFEFKKQFGPAIVSLIDQHFGSAMTGSNLRDELVEKVNKTLAKRLEQTNSYDLVPRWHDAFSFAAGTVVEVLSSTSLSLAAVNAWKVAAAESAISLTRQVRETFWSAASTSSPALSYLSPRTQILYAFVREELGVKARRGDVFLGKQEVTIGSNVSKIYEAIKSGRINNVLLKMLA
In the case of B1, the Km in [3] was 250 µM; in [6] it was 111 µM. Also, the “kcat” value in data set [3] came out at 2.09 s⁻¹; in data set [6], 0.46 s⁻¹. Also, the “TAL/PAL ratio” value in data set [4] is 0.5; in data set [4] (regional mutant amino acid No. 492-503, Table 19), 0.5; in data set [4] (summary table of mutants), 0.5. Besides, in data set [5], the “highest specific activity, TAL” value turned out to be 0.0650 U/mg protein. Also, in data set [7], the “highest specific activity, PAL” value was found to be 0.244 U/mg protein. Also, in [8], the “TAL/PAL ratio (catalytic efficiency)” value was 0.5.

B2: purified enzyme: purified PAL/TAL enzyme of Rhodosporidium toruloides (protein, UniProt P11544 1-716, looked up)
Phenylalanine/tyrosine …: B1 chain
Regarding B2, the PAL/TAL ratio in data set [9] is listed as 2.12.

B3: EP18Km-6: mutant R. glutinis PAL enzyme having enhanced TAL activity, Ile540Thr, SEQ ID NO:10 (protein)
chain: B1 chain with I540T
In the case of B3, the Km in data set [3] came to 333 µM; in data set [6], 50 µM. Also, the turnover number (kcat) in data set [3] came to 2.45 s⁻¹; in data set [6] it was 0.63 s⁻¹. Further, the “TAL activity ratio versus wild type cell” value in data set [10] is “enhanced TAL activity ratio”. In addition, the TAL/PAL ratio in data set [4] (regional mutants amino acid No. 120-280, Table 17) worked out at 1.7; in data set [4] (summary table of mutants), 1.7. Moreover, the “TAL/PAL activity of enzyme expressed from pET17b” value in data set [11] (BL21(DE3) E. coli cells) is reported as “fully active”. Moreover, the “TAL Activity (%)” value in data set [11] (C-terminal truncation mutant in pET17b) and in data set [11] (N-terminus truncation mutants in pET17b) was 100% each time. For the same molecule, the “TAL/PAL ratio (catalytic efficiency)” value in data set [8] turned out to be 1.7.

B4: Rhodosporidium: PAL/TAL enzyme of the yeast Rhodosporidium, literature value (protein)
chain: B1 chain
Consider B4, for which, in data set [12], the “ratio of TAL catalytic activity to PAL catalytic activity” value was “approximately 0.58”.
